The text below walks through data of article PMC6077723 (Proceedings of the National Academy of Sciences of the …, 2018).

For experiment [1], the target named is MBP-HIGD1A chimera (hypoxia-inducible domain family member 1A with an N-terminal maltose binding protein tag) (human) (UniProt Q9Y241). The experiment is described as follows: ITC. (ITC needs no label: the signal is the heat of the interaction.)
Another experiment concerns the target wild-type cytochrome c (human, UniProt P99999 1-105). In words: ITC.

Chain of wild-type cytochrome c (P99999 whole entry): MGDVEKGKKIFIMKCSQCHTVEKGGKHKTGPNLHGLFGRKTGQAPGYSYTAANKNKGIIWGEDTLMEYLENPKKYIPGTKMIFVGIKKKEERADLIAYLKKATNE

As to “Y97pCMF cytochrome c (phosphomimetic mutant) (from UniProt P99999 1-105) (natural protein)”, the stoichiometry N – broadly, the number of molecules, sites or subunits per partner or assembly – in experiment [1] turned out to be 1.

B1: N-terminal domain of HIGD1A (HIGD1A 1-26) (domain or fragment, human, UniProt Q9Y241 1-26, looked up)
chain: MSTDTGVSLPSYEEDQGSKLIRKAKE
As to B1, the binding result with wild-type cytochrome c is on record as “binds”.
